Assay results published in EP4818200A1 (USWM CT, LLC, dated 2026).

Key:
[1] = molecular target: T1, … HLA-A*0201 complex (biotinylated soluble pHLA) (human, enzymatically biotinylated (BirA) on the C-terminal biotinylation tag); test: SPR (BIAcore 3000), soluble TCR over immobilised biotinylated pHLA, 25 °C
T1 construct: also called MAGE-B2; not shown: C-terminal biotinylation tag

[2] = molecular target: T2, … HLA-A*0201 complex (biotinylated soluble pHLA) (human, enzymatically biotinylated (BirA) on the C-terminal biotinylation tag); test: as above
T2 construct: also called MAGE A4; not shown: C-terminal biotinylation tag

Kd [1] [µM]	Kd [2] [µM]	Binder
198	17.2	TCR2 (TCR) TCR alpha: MKNQVEQSPQSLIILEGKNCTLQCNYTVSPFSNLRWYKQDTGRGPVSLTIMTFSENTKSNGRYTATLDADTKQSSLHITASQLSDSASYICVVSGGTDSWGKLQF TCR beta: not shown
27.6	2.6	TCR3 (TCR) TCR alpha: MKNQVEQSPQSLIILEGKNCTLQCNYTVSPFSNLRWYKQDTGRGPVSLTIVTFSENTKSNGRYTATLDADTKQSSLHITASQLSDSASYICVVSGGTDSWGKLQF TCR beta: not shown
52.6	5.1	TCR4 (TCR) TCR alpha: MKNQVEQSPQSLIILEGKNCTLQCNYTVSPFSNLRWYKQDTGRGPVSLTILTFSENTKSNGRYTATLDADTKQSSLHITASQLSDSASYICVVSGGTDSWGKLQF TCR beta: not shown
